Data reported in publication PMC11093360.

Tests used:
M2trunk(1–228) (human) = M2trunk(1–228) (human) (UniProt P08172)
M2trunk(1–283) (human) = M2trunk(1–283) (human) (UniProt P08172)

| Bmax of [3H]NMS binding sites in COS-7 cells cotransfected with both fragments (M2trunk(1–228) alone: N.B.) (M2trunk(1–228) (human)) | Maximum inhibition of forskolin stimulated cAMP accumulation (%) by carbachol in COS-7 cells cotransfected with both fragments (M2trunk(1–228) (human)) | Bmax of [3H]NMS binding sites in COS-7 cells cotransfected with both fragments (M2trunk(1–283) alone: N.B.) (M2trunk(1–283) (human)) | Maximum inhibition of forskolin stimulated cAMP accumulation (%) by carbachol in COS-7 cells cotransfected with both fragments (M2trunk(1–283) (human)) | Substance |
| --- | --- | --- | --- | --- |
| 70 fmol/mg | 29% |  |  | M2tail(368–466) (from UniProt P08172 368-466) (domain or fragment) |
|  |  | 480 fmol/mg | 37% | M2tail(M-281-466) (from UniProt P08172 281-466) (domain or fragment) |
